# Like-named read-outs stand apart in the source and are kept apart here.
# T1: sIHF (Streptomyces coelicolor, UniProt Q9KXR9 1-107)
# T1 sequence: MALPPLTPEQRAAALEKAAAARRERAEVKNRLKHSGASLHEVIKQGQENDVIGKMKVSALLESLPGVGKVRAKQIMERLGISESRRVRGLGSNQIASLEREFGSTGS
# B1: 19-bp duplex (20bp OH1/OH2) (dsDNA)
# DNA 1: GAGGGAGTGCGTGGGTCTGA
# DNA 2: CTCAGACCCACGCACTCCCT
# B2: 60-bp dsDNA (dsDNA)
# DNA 1: CGTACGCGTCGCCACGGCGGCGGCATCGTCCACGAGAACACCCGCCACACCACCCGCTTC
# DNA 2: GAAGCGGGTGGTGTGGCGGGTGTTCTCGTGGACGATGCCGCCGCCGTGGCGACGCGTACG
# B3: 43-bp dsDNA (dsDNA)
# DNA 1: ACCAGGTGGTTGCCGATCACCACGAAGCGGGTGGTGTGGCGGG
# DNA 2: CCCGCCACACCACCCGCTTCGTGGTGATCGGCAACCACCTGGT
# How the values were obtained:
# [1] = biological target: T1, sIHF; test: EMSA
# [2] = biological target: T1, sIHF; test: EMSA; remark: listed apart in the source
binder,measurement,setting,value
B1,binding result,[1],binds
B2,binding result,[2],binds
B3,binding result,[2],binds
